{"source": "the nanobody polyreactivity screen of Harvey et al. (2022)"}
{"assay": "yeast display, Sf9 membrane polyspecificity reagent, FACS + sequencing; frameworks hold sequencing errors", "summary_of_the_method": "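Synthetic nanobody libraries on Saccharomyces cerevisiae BJ5465 were galactose-induced for 36–48 hours, stained 1 hour at 4 °C with 10% biotinylated, detergent-solubilized Sf9 membrane reagent and enriched on streptavidin microbeads. FACS then separated cells into low and high (top ~1%) gates by anti-HA (expression) and streptavidin (reagent binding) fluorescence. Genes were colony-PCR amplified, MiSeq 2 × 250 sequenced and CDR-length filtered. A clone's polyreactivity label is that of its gate of origin.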"}
{"sequence": "QVQLVESGGGLVQAGGSLRLSCAASGRTFYRYAMGWYRHAPGKERELVASITRGTSTNYADSVKGRFTISRDNAKNTVYLQMNSLKPEDTAVYYCNRRIFGGQRMYYWGQGTQVTVSS", "polyreactivity (PSR sort gate)": "high polyreactivity"}
{"sequence": "QVQLVESGGGLVQAGGSLRLSCAASGRTFYRYAMGWYRQAPGKEREFVAAISRCGGSTYYADSVKGRFTISRDNAKNTVFLQMNRLKPEDTGVYYCNADTRAGGFYTPYGRDYWGQGSQVTVSS", "polyreactivity (PSR sort gate)": "high polyreactivity"}
{"sequence": "QVQLVESGGGLVQAGGSLRLSCAASGRTFYRYAMGWYRQAPGKEREFVARITTSGGSTYYADSVKGRFTISRDNAKNTVYLEMNSLKPEDTAVYYCAASAPYIYYWGQGTQVTVSS", "polyreactivity (PSR sort gate)": "high polyreactivity"}
{"sequence": "QVQLVESGGGLVQAGGSLRLSCAASGRTFYRYAMGWYRQAPGKEREFVARITTSGGSTYYADSVKGRFTISRDNAKNTVYLQMNSLKPDDTAVYYCNASGVTYAFLRFDYWGQGTQVTVSS", "polyreactivity (PSR sort gate)": "high polyreactivity"}
{"sequence": "QVQLVESGGGLVQAGGSLRLSCAASGRTFYRYAMGWYRQAPGKERELFAAISGSGTSTSYADSVKGRFTISRDNAKNTVYLQLNSLKPDDTAVYYCAATYYVYYYSRYYYWGQGTQVTVSS", "polyreactivity (PSR sort gate)": "high polyreactivity"}
{"sequence": "QVQLVESGGGLVQAGGSLRLSCAASGRTFYRYAMGWYRQAPGKERELVAAISGSGTSTSYADSVKGRFTISRDNAKNTVYLQMNSLKPEDTAVYYCAATYYVYYYSRYYYWGQGTQVTVSS", "polyreactivity (PSR sort gate)": "high polyreactivity"}
{"sequence": "QVQLVESGGGLVQAGGSLRLSCAASGRTFYRYAMGWYRQAPGKERELVASITRDGRTNYADSVKGRFTISRDNAKNTVYLQMNSLKPEDTAVYYCNAKHKITHSSSDYWGQGTQVTVSS", "polyreactivity (PSR sort gate)": "high polyreactivity"}
{"sequence": "QVQLVESGGGLVQAGGSLRLSCAASGRTFYRYAMGWYRQAPGKERELVATISRSGGSTYYADSVKGRFTISRDNAKNTVYLQMNSLKPEDTAVFYCNAEGYPWGFYTYDYWGQGTQVTVSS", "polyreactivity (PSR sort gate)": "low polyreactivity"}
{"sequence": "QVQLVESGGGLVQAGGSLRLSCAASGRTFYRYAMGWYRQAPGKERELVAVITSGSRTKYADSVKGRFTISRDNAKNTVYLQMNSLKPEDTAVYYCNAYGVRYRQAFVRYNYWGQGTQVTVSS", "polyreactivity (PSR sort gate)": "high polyreactivity"}
{"sequence": "QVQLVESGGGLVQAGGSLRLSCAASGRTFYRYAMGWYRQAPGKESELVAAISSSGGSTYYADSVKGRFTISRDNAKNTVYFQMNSLKPEDTAVYDCADQYFLFTTPYRYAPRMGYWGQGTQVTLSS", "polyreactivity (PSR sort gate)": "high polyreactivity"}
{"sequence": "QVQLVESGGGLVQAGGSLRLSCAASGRTFYRYGMGWYRQAPGKEREFVAAITRSGDSTYADSVKGRFTISRDNAKITVYLQMNSLKPEDTAVYYCAKVFLRQYAYRYYYWGQGTQVTVSS", "polyreactivity (PSR sort gate)": "high polyreactivity"}
{"sequence": "QVQLVESGGGLVQAGGSLRLSCAASGRTFYRYVMGWYRQATGKERELDADISRRGGRTYYADSVKGRFTISRDNAKNTVYLQMNSLKPEDTAVYYCAAESKYATSSPRRDYWGQGTQVTVSS", "polyreactivity (PSR sort gate)": "high polyreactivity"}
{"sequence": "QVQLVESGGGLVQAGGSLRLSCAASGRTFYSNAMGWYRQAAGKERELVAAISYNDGSTYYADSVKGRFTITRDNAKNTVYLQMNSLKPEDTAVYACNADVGAWAWYTRYDYWGQGTQVTVSS", "polyreactivity (PSR sort gate)": "low polyreactivity"}
{"sequence": "QVQLVESGGGLVQAGGSLRLSCAASGRTFYSNAMGWYRQAPGKERELVAAIRQSGGSTYYADSVKGRFTISRDNEKNSVYLQMNSLTPEDTAVYYCATGRHDSYKGSLYYYWGQGTQVTVSS", "polyreactivity (PSR sort gate)": "high polyreactivity"}
{"sequence": "QVQLVESGGGLVQAGGSLRLSCAASGRTFYSNAMGWYRQAPGKERELVAAISRSGGTTYYADSVKGRFTISRDNAKNTVYLQMNSLKPEDTAVYYCNTLRYGTTGKYDYWGQGTQVTVSS", "polyreactivity (PSR sort gate)": "high polyreactivity"}
{"sequence": "QVQLVESGGGLVQAGGSLRLSCAASGRTFYSYAMGWYRQAPGKERELVAAISASGGRTYYADSVKGRFTISRDNAKNTVYLQMNSLKPEDTAVYYCAAYPWYRMWGQGTQVTVSS", "polyreactivity (PSR sort gate)": "high polyreactivity"}
{"sequence": "QVQLVESGGGLVQAGGSLRLSCAASGRTFYSYAMGWYRQAPGKERELVAAISRGGNTYYADSVKGRFTISRDNAKNTVSLQMNSLNPEDTAVYYCAVVRVTYYASIYHRGYDYWGQGTQVTVSS", "polyreactivity (PSR sort gate)": "low polyreactivity"}
{"sequence": "QVQLVESGGGLVQAGGSLRLSCAASGRTFYSYAMGWYRQAPGTEREFVAAINWSGTSTYADSVKGRFTISRDNAKNTVYLQMNSLKPEDTAVYYCAKTYRTLVRYWGQPFGYWGQGTQVTVSS", "polyreactivity (PSR sort gate)": "high polyreactivity"}
{"sequence": "QVQLVESGGGLVQAGGSLRLSCAASGRTFYSYTMGWYRPAPGKERELVAAINRGGSTYYADSVKGRFTISRDNAKNTVYLQMNSLKPEDTAVYYCAVGYAHSSNRRYYYKKTHGYWGQGTQVTVSS", "polyreactivity (PSR sort gate)": "low polyreactivity"}
{"sequence": "QVQLVESGGGLVQAGGSLRLSCAASGRTFYSYVMGWYRQAPGKERELVAAISSTGGTYADSVKGRFTISRDNAKNTVYLQMNSLKPEDTAVYYCAARVHFPYPDYAWITVLYDYWGQGTQVTVSS", "polyreactivity (PSR sort gate)": "low polyreactivity"}
{"sequence": "QVQLVESGGGLVQAGGSLRLSCAASGRTFYWNAMGWSIQAPGKERELVASISWSGGRTYYADSVKGRFTISRDNAKNTVYLQMISLKPEDTAVYYCARRYSGTPSTFYYWGQGTLVTVSS", "polyreactivity (PSR sort gate)": "high polyreactivity"}
{"sequence": "QVQLVESGGGLVQAGGSLRLSCAASGRTFYWNAMGWYRQAPGKDRDLVASISWSGGRTYYADSVKGRFTISRDNAKNTVYLQMNSLKPEDTAVYYCARRYSGTPSTFYYWGQGTQVNVSS", "polyreactivity (PSR sort gate)": "high polyreactivity"}
{"sequence": "QVQLVESGGGLVQAGGSLRLSCAASGRTFYYAMGWYRQAPGKERELVAAISKNGGRTYYADSVKGRFTISRDNAKNTVYLQMNSLKPEDTAVYYCAAAFQRPHSYLYYYWGQGTQVTVSS", "polyreactivity (PSR sort gate)": "high polyreactivity"}
{"sequence": "QVQLVESGGGLVQAGGSLRLSCAASGRTFYYAMGWYRQAPVKERYADSVKGRFTISRDNAKNTVYLQMNSLKPEDTAVYYCAAKVPEPPSLDESDYWGQGTQVTVSS", "polyreactivity (PSR sort gate)": "low polyreactivity"}
{"sequence": "QVQLVESGGGLVQAGGSLRLSCAASGRTFYYNAMGWYRQAPGKEREFVAAISYGGTTTYYADSVKGRFTISRDNAKNTVYLQMNSLKPEDTAVYYCAAGYTWRQSWYPFDYWGQGSQVTVSS", "polyreactivity (PSR sort gate)": "high polyreactivity"}
{"sequence": "QVQLVESGGGLVQAGGSLRLSCAASGRTFYYNAMGWYRQAPGKERELVARISTIGGNTFYADSVKGRFTISRDNAKNTVYLQMNSLKPEDTAVYYCATTGGPSWRKYDYWGQGTQVTVSS", "polyreactivity (PSR sort gate)": "high polyreactivity"}
{"sequence": "QVQLVESGGGLVQAGGSLRLSCAASGRTFYYNAMGWYRQAPGKERELVARITSSGGSTYYADSVKGRFTISRDNAKNTVYLQMNSLKPEDTAVYYCAAGRSRYLWFGRDFDYWGQGTQVTVSS", "polyreactivity (PSR sort gate)": "low polyreactivity"}
{"sequence": "QVQLVESGGGLVQAGGSLRLSCAASGRTFYYNTMGRNIPAPGKERELVATISRIGGSTYYADSVKGRFTISRDNAKNTVYLQMNSLKPEDTAVYYCAKGRSLNGRPPVVYWQLFYYWGQGTEVTVSS", "polyreactivity (PSR sort gate)": "high polyreactivity"}
{"sequence": "QVQLVESGGGLVQAGGSLRLSCAASGRTFYYNVMGWYRQAPGKERELVAAISTGVSTNYADSVKGRFTISRDNAKNTVYLQMNSLKPEDTAVYYCNARSYRWYRPVYRYDYWGQGTQVNVSS", "polyreactivity (PSR sort gate)": "high polyreactivity"}
{"sequence": "QVQLVESGGGLVQAGGSLRLSCAASGRTFYYYAMGSYRQAPGKEREFVAAITTRGGSTYYADSVKGRFTISRDNAKNTVYLQMNSLKPEDTAVYYCAARSYYQGGYYYWGQGTQVTVSS", "polyreactivity (PSR sort gate)": "high polyreactivity"}
{"sequence": "QVQLVESGGGLVQAGGSLRLSCAASGRTFYYYAMGWYRPAPGKERELVAAITSRGGSTYYADSVTGRFTISRDNAKNTVYLQMNSLKPEDTAVYYCAAEYWSTYWQSELDYWGQGTQVTVSS", "polyreactivity (PSR sort gate)": "high polyreactivity"}
{"sequence": "QVQLVESGGGLVQAGGSLRLSCAASGRTFYYYAMGWYRQAHGKERELVAAISTNGGSTYYADSVKGRFTISRDNAKNTVYLQMNSLKPEDTAVYYCNTYAKPHRSGGGLGGHYYWGQGTQVTLSS", "polyreactivity (PSR sort gate)": "low polyreactivity"}
{"sequence": "QVQLVESGGGLVQAGGSLRLSCAASGRTFYYYAMGWYRQAPGKEREFVASISYSGARTYYADSVKGRFTISRDNAKNTVYLQMNSLKPEETAVYYCAAGYPLGGDYWGQGTQVTVSS", "polyreactivity (PSR sort gate)": "high polyreactivity"}
{"sequence": "QVQLVESGGGLVQAGGSLRLSCAASGRTFYYYAMGWYRQAPGKERELVAGIDFSSGSTYYADSVKGRFTISRDNAKNTVYLQMNSLKPEDTAVYYCAAKWHVRGRGARYRYDYDYWGQGTQVTVSS", "polyreactivity (PSR sort gate)": "low polyreactivity"}
{"sequence": "QVQLVESGGGLVQAGGSLRLSCAASGRTFYYYAMGWYRQAPGKERELVARIRSGGSTNYADSVKGRFTISRDNAKNTVYLQMNSLKPEDTAVYYCNALGAKGYVKGFDYWGQGTQVTVSS", "polyreactivity (PSR sort gate)": "low polyreactivity"}
{"sequence": "QVQLVESGGGLVQAGGSLRLSCAASGRTFYYYAMGWYRQAPGKERELVATITKSSGSTSYADSVKGRFTISRDNAKNTVYLQMNSLKPEDTAVYYCAKVFRSGGVYRYDYWGQGTQVTVSS", "polyreactivity (PSR sort gate)": "high polyreactivity"}
{"sequence": "QVQLVESGGGLVQAGGSLRLSCAASGRTFYYYAMGWYRQAPGKERELVAVIRFSDGSTYYADSVKGRFTISRDNAKNTVYLQMNSLKPEDTAVYYCAAKGPRRWGSGFDYWGQGTQVTVSS", "polyreactivity (PSR sort gate)": "low polyreactivity"}
{"sequence": "QVQLVESGGGLVQAGGSLRLSCAASGRTFYYYGMGWYRQAPGKERELVASITNGGNTNYADSVKGRFTISRDNAKNTVYLQMNSLKPEDTAVYYCAKDVPYWRPVVRYDYWGQGTQVTVSS", "polyreactivity (PSR sort gate)": "low polyreactivity"}
{"sequence": "QVQLVESGGGLVQAGGSLRLSCAASGRTFYYYGMGWYRQAPGKERELVASITNGGNTNYADSVKGRFTISRDNAKYTVYLQMNSLKPEDTAVYYCAKDVPYWRPVVRYDYWGQGTQVTVSS", "polyreactivity (PSR sort gate)": "low polyreactivity"}
{"sequence": "QVQLVESGGGLVQAGGSLRLSCAASGRTHIYAMGWYRQAPGKERELVAGISRSGTRTYYADSVKGRFTISRDNAKNTVYLQMNSLKPEDSAVYYCNAQAYYQGYDYWGQGTQVTVSS", "polyreactivity (PSR sort gate)": "high polyreactivity"}
{"sequence": "QVQLVESGGGLVQAGGSLRLSCAASGRTIAINAMGWYRQAPGKEREFVAAITSRSSRTYYADSVKGRFTISRDNAKNTVYLQMNSLKPEDTAVYYCARGSELGYYAWVYYWGQGTQVTVSS", "polyreactivity (PSR sort gate)": "high polyreactivity"}
{"sequence": "QVQLVESGGGLVQAGGSLRLSCAASGRTIGIYARGWYRQAPVKERELVADITIGGSTYYADSVKGRFTISRDNAKNTVFIQINSLKPEDTAVYYCAARNPGYTRTGRRYDSWGQGTQVTVSS", "polyreactivity (PSR sort gate)": "low polyreactivity"}
{"sequence": "QVQLVESGGGLVQAGGSLRLSCAASGRTIIRNTMGWYRQAPGKERELVARISYGGGRTYYADSVKGRFTISRDNAKNTVYLQMNSLKPEDTAVYYCAKVTPPFWGGYWYNYWGQGTQVTVSS", "polyreactivity (PSR sort gate)": "high polyreactivity"}
